Legend:
[1] = target: His-DDX3X^414-582 (human) (UniProt O00571); experiment: fluorescence thermal shift (FTS) assay; 10 µM His-DDX3X^414-582, 20 µM peptide, 50 mM HEPES pH 8, 10x SYPRO-Orange; change of melting temperature
[2] = target: His-DDX3X^414-582 (human) (UniProt O00571); experiment: fluorescence thermal shift (FTS) assay; FTS with varying concentrations of peptide; melting temperatures fitted to single site or simple cooperative ligand binding, preferred model chosen

Sequence of His-DDX3X^414-582 (human) (O00571 414-582): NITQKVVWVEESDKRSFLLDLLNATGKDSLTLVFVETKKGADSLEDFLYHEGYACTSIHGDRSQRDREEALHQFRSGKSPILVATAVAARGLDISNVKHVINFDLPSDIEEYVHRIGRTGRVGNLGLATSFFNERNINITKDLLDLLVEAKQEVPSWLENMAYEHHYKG

“CK1δ-derived peptide δ-41 (from UniProt P48730 41-55)” gave an increase of the melting temperature (Tm) of His-DDX3X^414-582 [1] of 5 °C and a Kd [2] of 5.49 µM.

From PMC5818060
